Measurements taken from the DeepSol protein solubility set.

Assay: soluble on expression in E. coli; label from the status in PepcDB or PDB records

Sequence	soluble on expression in E. coli
MGSQVQKSDEITFSDYLGLMTCVYEWADSYDSKDWDRLRKVIAPTLRIDYRSFLDKLWEAMPAEEFVGMVSSKQVLGDPTLRTQHFIGGTRWEKVSEDEVIGYHQLRVPHQRYKDTTMKEVTMKGHAHSANLHWYKKIDGVWKFAGLKPDIRWGEFDFDRIAEDGRETFGDK	soluble
MGSSHHHHHHGKTIFVIVPTNEEQVAFLEALAKQDELNFDWQNPPTEPGQPVVILIPSDMVEWFLEMLKAKGIPFTVYVEEGGSENLYFQGGGGGGAHSLMRQMMLASVIRFTAVFLGIRRCRGAFVVAPLFVLQPLLQHLQQLITHPLTCLQGGIQWQLHALVEHLVHLQHLPSPRVQLSHVTKKRRAPVRKVVCGRIIHVHRTLLLLKQLRLLGVPGTQRAESSEHGGEPLTAVLVQLDKSIASRSGDNGDGGGRCR	not soluble
MGSSHHHHHHMKKARMTVDKDYKIAEIDKRIYGSFVEHLGRAVYDGLYQPGNSKSDEDGFRKDVIELVKELNVPIIRYPGGNFVSNYFWEDGVGPVEDRPRRLDLAWKSIEPNQVGINEFAKWCKKVNAEIMMAVNLGTRGISDACNLLEYCNHPGGSKYSDMRIKHGVKEPHNIKVWCLGNAMDGPWQVGHKTMDEYGRIAEETARAMKMIDPSIELVACGSSSKDMPTFPQWEATVLDYAYDYVDYISLHQYYGNKENDTADFLAKSDDLDDFIRSVIATCDYIKAKKRSKKDIYLSFDEWNVWYHSNNEDANIMQNEPWRIAPPLLEDIYTFEDALLVGLMLITLMKHADRIKIACLAQLINVIAPIVTERNGGAAWRQTIFYPFMHASKYGRGIVLQPVINSPLHDTSKHEDVTDIESVAIYNEEKEEVTIFAVNRNIHEDIVLVSDVRGMKDYRLLEHIVLEHQDLKIRNSVNGEEVYPKNSDKSSFDDGILTSMLRRASWNVIRIGK	soluble
MGSSHHHHHHSQDPMLSKDIIKLLNEQVNKEMNSSNLYMSMSSWCYTHSLDGAGLFLFDHAAEEYEHAKKLIIFLNENNVPVQLTSISAPEHKFEGLTQIFQKAYEHEQHISESINNIVDHAIKSKDHATFNFLQWYVAEQHEEEVLFKDILDKIELIGNENHGLYLADQYVKGIAKSRKS	soluble
MGSSHHHHHHSSGENLYFQGHMSVSAFNRRWAAVILEALTRHGVRHICIAPGSRSTPLTLAAAENSAFIHHTHFDERGLGHLALGLAKVSKQPVAVIVTSGTAVANLYPALIEAGLTGEKLILLTADRPPELIDCGANQAIRQPGMFASHPTHSISLPRPTQDIPARWLVSTIDHALGTLHAGGVHINCPFAEPLYGEMDDTGLSWQQRLGDWWQDDKPWLREAPRLESEKQRDWFFWRQKRGVVVAGRMSAEEGKKVALWAQTLGWPLIGDVLSQTGQPLPCADLWLGNAKATSELQQAQIVVQLGSSLTGKRLLQWQASCEPEEYWIVDDIEGRLDPAHHRGRRLIANIADWLELHPAEKRQPWCVEIPRLAEQAMQAVIARRDAFGEAQLAHRICDYLPEQGQLFVGNSLVVRLIDALSQLPAGYPVYSNRGASGIDGLLSTAAGVQRASGKPTLAIVGDLSALYDLNALALLRQVSAPLVLIVVNNNGGQIFSLLPTPQSERERFYLMPQNVHFEHAAAMFELKYHRPQNWQELETAFADAWRTPTTTVIEMVVNDTDGAQTLQQLLAQVSHL	soluble
MGSSHHHHHHSSGLVPRGSKTFIIGISGVTNSGKTTLAKNLQKHLPNCSVISQDDFFKPESEIETDKNGFLQYDVLEALNMEKMMSAISCWMESARHSVVSTDQESAEEIPILIIEGFLLFNYKPLDTIWNRSYFLTIPYEECKRRRSTRVYQPPDSPGYFDGHVWPMYLKYRQEMQDITWEVVYLDGTKSEEDLFLQVYEDLIQEL	soluble
MGSSRKTANAATNNFPCHGSCPEPSFQIQVIARGVRRRRSPIDQPSMEADVDTDIIDHLKTLHTSEIDARNGYEEALEDAEGKGLTSLFRDMIALHHGNAEELAGMLINAGETADDSGSFMSVVHRTIMSVRSLFDGLDGSVLPGLIDGEKRNLSKYDDALKAIAGIPSISSTLSAQRAKISEKIALMEQQKAAYEAAT	not soluble
MGTEGGAMIRTVALVGHAGSGKTTLTEALLYKTGAKERRGRVEEGTTTTDYTPEAKLHRTTVRTGVAPLLFRGHRVFLLDAPGYGDFVGEIRGALEAADAALVAVSAEAGVQVGTERAWTVAERLGLPRMVVVTKLDKGGDYYALLEDLRSTLGPILPIDLPLYEGGKWVGLIDVFHGKAYRYENGEEREAEVPPEERERVQRFRQEVLEAIVETDEGLLEKYLEGEEVTGEALEKAFHEAVRRGLLYPVALASGEREIGVLPLLELILEALPSPTERFGDGPPLAKVFKVQVDPFMGQVAYLRLYRGRLKPGDSLQSEAGQVRLPHLYVPMGKDLLEVEEAEAGFVLGVPKAEGLHRGMVLWQGEKPESEEVPFARLPDPNVPVALHPKGRTDEARLGEALRKLLEEDPSLKLERQEETGELLLWGHGELHLATAKERLQDYGVEVEFSVPKVPYRETIKKVAEGQGKYKKQTGGHGQYGDVWLRLEPASEYGFEWRITGGVIPSKYQEAIEEGIKEAAKKGVLAGFPVMGFKAIVYNGSYHEVDSSDLAFQIAASLAFKKVMAEAHPVLLEPIYRLKVLAPQERVGDVLSDLQARRGRILGMEQEGALSVVHAEVPLAEVLEYYKALPGLTGGAGAYTLEFSHYAEVPPHLAQRIVQERAQEG	soluble
MGTIADIVVTEQNAERFWIVVHRDGAPSLRLTVDQDVLLQFRLKKGMEISDDLLQHIVYADEVKKAYQQALYFLAHRMRSEHEVAAHLRKKGAPDSVIDEVLKKLRAERYVDDEAFAAAYVRTQKKTAAKGPLLIRAELERLGVLGCLIEQSLAEYTLDEQMAIARSLYEKAKKQRLAESARAFLERVRQQLMRKGFPHEVIAAVLADGGAHTEQEEREALSVQAEKAHRRYAHHPRPLYEQKMRQALYRKGFALDLINEWLRMHGNDE	not soluble
MGVDRQILVEGDNVTKPKNGQTVTCHYVLTLENGKKIDSSRDRGTPFKFKIGKGEVIKGWDQGVAQMSVGEKSKLTISADLGYGPRGVPPQIPANATLVFEVELLGVN	soluble
MGVKVASSSTFLQWTTQPIIHQSSSPSQTLASGTITSPSKRRSTVHDGRFLSCRFVTQRLNRSALFGTPSTKLHRPKSCELWKSSSSSSRPIKTQSFRRVYSANLDPFSDEEFSKKIQELTLRFNIPHHDDDENSIEPPWNEMVHLSSIEMKANSVDLPLSLRIIKKKRQWEEGVKQAGESACCSMNKAFSSMVFMIRELQSFTLHMREILFYEDLQEILLRVREEMQQSFVWLFQQVFSATPTLMVYVMILLANFTVYSIGNNSSALAAVAPLPPTITELTTVSETEETNVKFDSSVVKTFFVSSPSGSIASVGGNNNGGGGNVKPVLSGTDGDGSDGSEQFRTIIPEGVSQLSSSNFGSEPSVSGQDEHRLWNSMVEEAERMQYSNIDDSLDQETRKRFVSHVEARVEAEEDTGYFKTELMYQTELSQEPNNPLLLANYAQFLYLVSNDHDRAEEYFKRAVGVEPKDAEAFSKYATFLWRARDDLWAAEETFLEAIDADPTNSYYAANYANFLWNTGGDDTCFPLDDESHEDTI	not soluble
MGVMNTGETLDEKAIVASAEKALSDIAAIRTEVSKVIFGQEKVVQNTLLAILSGGHALLVGVPGLAKTKLVTTLGTVLGLDANRIQFTPDLMPSDILGSEVMDQDENGRRSFRFIKGPIFGQLLMADEINRASPRTQSALLQAMQEYHITMAGQTYELPKPFHVLATQNPLEQEGTYPLPEAQLDRFLLQVDVDYPELAAERQILLDTTGTASGEARPVIGAERLMEIQALIRQMPVSDKVVDAILSLVRSARPGHGNKLTDKNVVWGPGPRAGQSLMLTARARALYEGRLAPSLDDVHALAEPVLEHRMALTFAARAEGMSVRDVIAALVEQAKN	not soluble
MGWHFQQSVTMPSEWRTLALESDDSYNDFTVIMRRKLQENQVNVVNLEQNIPILRINKQITSDQVASIFKHGREAEKLLMLEVEATFRLANGESYPINAKVNRTFFDNARAALAKSEEREVIWNDMREQVARQLIVKIIALQNQIKRKLEHHHHHH	soluble
MGYLVSKHLALSLGSSKRGYILSPIMPPVVIVEDDGPGYPFDIYYSEGKRVLTIVHRANPEREVQDEYLHTLSLWLREMGVGRVILVGGLNMEFMPREEKHGYRWLANRHYKGPKLEAPTMEAGLGVVGPLALLYMYLDYLGVPAAMVLPYSVAERVDYEAAIRGLKVIGGSIIGVEIPTDEIEKMASMQREILETISRMIEGEEEKESGGIYM	not soluble
MGYTKKVYEGGSNVDQFVTRFLLKETANQIQSLLSSVESAVEAIEEQTSQLRQNHIKPSHSAAQTWCGSPTPASAPNHKLMAMEQGKTLPSATEDAKEEGLEAQISRLAELIGRLESKALWFDLQQRLSDEDGTNMHLQLVRQEMAVCPEQLSEFLDSLRQYLRGTTGVRNCFHITAVRLSDGFTFVIYEFWETEEAWKRHLQSPLCKAFRHVKVDTLSQPEALSRILVPAAWCTVGRD	not soluble
MHADLVIVGAGMVGSALALALEGSGLEVLLVDGGSLDVAPFKPEAPYEPRVSALSEASRRILQRLHAWDGIVARRAEPYREMQVWDGSGTGRIGFSAASVHAEVLGHIVENRVVQDALLERLHDSTTGLLANARLEQMRHSGDDWLLTLADGRQLRAPLVVAADGANSAVRRLAGCATREWDYLHHAIVTSVRCENAHRATAWQRFTDDGPLAFLPLPDRGDEHWCSIVWSTTPEQAERLMALDEDGFRAALGEAFEQRLGAILHADRRLCIPLRQRHAKRYVEPGLALVGDAAHTIHPLAGQGVNLGFLDAAVLSEVLLHALERGERLADERVLSRFERRRMPHNLGMMTAMEGFERLFQADRLPLRWLRNAGLRLVDGHHEAKALFVRQALGLSGDLPMLARVLEHHHHHH	soluble
MHAILNTFKSGVGDCVFMRLIKDDATFSIMIDCGKYTPEINLFIKEKLHKHIDLLIVTHIDDDHINGVCEMLIAMPEITIGKIFYNCYQLLSGEKIAALTKIVSSDIEILTQNLPKQRTDTNGKINMEHASVLASILLKNPQWNSAWEKTFYIENSLEPYPLGDGLGQLVFISPTSSELKTLDMNFAREYLRLTRHEVINAPFEGRETLFELVSRLVSMKIREREYVKKQKIAGLIDKYSVERWKKAKDFEPSGITDENKGSIAFIWEYKDTKVLFMGDAEPDIVKTAIVNKYGKVDNMKAIKVSHHGSKHSTSKELMEVIDSFDYFITGGSVGDKPSMETLVKIVDRGDNKVRTIHYNYDRNILMKDMASDESVELRQKYNFQIDTNNELEFEY	not soluble
MHAITNSGWVEVITGSMFSGKTEELLRRLRRAEIAGQDVAAVTPAVDDRYGEATLGSHAGRSWAATVVEPTAEGVASIPTLLNGEQVVAIDEANFFPAELVDVCQELAADGRRVVLSGTDQTFRGEPFEPVPQLMAIAEYVDKMRAICMQCGEPATRNQRLIEGEPAHYDDPTVMVGAEETYEARCRNCHVVRRELEHHHHHH	not soluble
MHDRASQMVIFYALAKAGSFTAAAKQMGVSTSHVSKQLGALEETLNLKLVHRTTRSLILTDAGQQFFLYCETIYNAMTEASAIMDDERDEVAGILRLGLSQSFGTMHIIPAIDKLRNQYPDLQVEVRLFDHQADMLKDGLDLWVTNFEDLPEGYVAQRLADSNFVLAASPDYLIDKKVPHHPLDLVEHNCLTYQSRYRDYSNWDFSKGNESLCVKVSGNYRVDLAEAVRDATISGWGIAYLASYLLTNEFNDGKLIQLLPGWKASQKMPIYAVYPSRKHLPRKISAVIDFLREHIGQPPYWDKALMKRVKL	soluble
MHEFTDTRDDSTLDEIWLVEHYPVFTQGQAGKAEHILMPGDIPVIQSDRGGQVTYHGPGQQVMYVLLNLKRRKLGVRELVTLLEQTVVNTLAELGIEAHPRADAPGVYVGEKKICSLGLRIRRGCSFHGLALNVNMDLSPFLRINPCGYAGMEMAKISQWKPEATTNNIAPRLLENILALLNNPDFEYITALEHHHHHH	not soluble
